The target in the experiment is Q338H MBP–MUTYH (human). Briefly: pull-down.

Experimental findings from article PMC3627602 are described below.

B1: RAD9:RAD1:HUS1 (9–1–1) complex, endogenous in HeLa nuclear extract (complex)
chain 1: MKCLVTGGNVKVLGKAVHSLSRIGDELYLEPLEDGLSLRTVNSSRSAYACFLFAPLFFQQYQAATPGQDLLRCKILMKSFLSVFRSLAMLEKTVEKCCISLNGRSSRLVVQLHCKFGVRKTHNLSFQDCESLQAVFDPASCPHMLRAPARVLGEAVLPFSPALAEVTLGIGRGRRVILRSYHEEEADSTAKAMVTEMCLGEEDFQQLQAQEGVAITFCLKEFRGLLSFAESANLNLSIHFDAPGRPAIFTIKDSLLDGHFVLATLSDTDSHSQDLGSPERHQPVPQLQAHSTPHPDDFANDDIDSYMIAMETTIGNEGSRVLPSISLSPGPQPPKSPGPHSEEEDEAEPSTVPGTPPPKKFRSLFFGSILAPVRSPQGPSPVLAEDSEGEG
chain 2: MPLLTQQIQDEDDQYSLVASLDNVRNLSTILKAIHFREHATCFATKNGIKVTVENAKCVQANAFIQAGIFQEFKVQEESVTFRINLTVLLDCLSIFGSSPMPGTLTALRMCYQGYGYPLMLFLEEGGVVTVCKINTQEPEETLDFDFCSTNVINKIILQSEGLREAFSELDMTSEVLQITMSPDKPYFRLSTFGNAGSSHLDYPKDSDLMEAFHCNQTQVNRYKISLLKPSTKALVLSCKVSIRTDNRGFLSLQYMIRNEDGQICFVEYYCCPDEEVPESES
chain 3: MKFRAKIVDGACLNHFTRISNMIAKLAKTCTLRISPDKLNFILCDKLANGGVSMWCELEQENFFNEFQMEGVSAENNEIYLELTSENLSRALKTAQNARALKIKLTNKHFPCLTVSVELLSMSSSSRIVTHDIPIKVIPRKLWKDLQEPVVPDPDVSIYLPVLKTMKSVVEKMKNISNHLVIEANLDGELNLKIETELVCVTTHFKDLGNPPLASESTHEDRNVEHMAEVHIDIRKLLQFLAGQQVNPTKALCNIVNNKMVHFDLLHEDVSLQYFIPALS
On to B1, for which the percent reduction of HUS1 associated, against wild-type MUTYH worked out at 80% and the percent reduction of RAD9 associated, against wild-type MUTYH is more than 50%.

B2: purified recombinant RAD9:RAD1:HUS1 (9–1–1) complex (complex)
chain 1: MKCLVTGGNVKVLGKAVHSLSRIGDELYLEPLEDGLSLRTVNSSRSAYACFLFAPLFFQQYQAATPGQDLLRCKILMKSFLSVFRSLAMLEKTVEKCCISLNGRSSRLVVQLHCKFGVRKTHNLSFQDCESLQAVFDPASCPHMLRAPARVLGEAVLPFSPALAEVTLGIGRGRRVILRSYHEEEADSTAKAMVTEMCLGEEDFQQLQAQEGVAITFCLKEFRGLLSFAESANLNLSIHFDAPGRPAIFTIKDSLLDGHFVLATLSDTDSHSQDLGSPERHQPVPQLQAHSTPHPDDFANDDIDSYMIAMETTIGNEGSRVLPSISLSPGPQPPKSPGPHSEEEDEAEPSTVPGTPPPKKFRSLFFGSILAPVRSPQGPSPVLAEDSEGEG
chain 2: MPLLTQQIQDEDDQYSLVASLDNVRNLSTILKAIHFREHATCFATKNGIKVTVENAKCVQANAFIQAGIFQEFKVQEESVTFRINLTVLLDCLSIFGSSPMPGTLTALRMCYQGYGYPLMLFLEEGGVVTVCKINTQEPEETLDFDFCSTNVINKIILQSEGLREAFSELDMTSEVLQITMSPDKPYFRLSTFGNAGSSHLDYPKDSDLMEAFHCNQTQVNRYKISLLKPSTKALVLSCKVSIRTDNRGFLSLQYMIRNEDGQICFVEYYCCPDEEVPESES
chain 3: MKFRAKIVDGACLNHFTRISNMIAKLAKTCTLRISPDKLNFILCDKLANGGVSMWCELEQENFFNEFQMEGVSAENNEIYLELTSENLSRALKTAQNARALKIKLTNKHFPCLTVSVELLSMSSSSRIVTHDIPIKVIPRKLWKDLQEPVVPDPDVSIYLPVLKTMKSVVEKMKNISNHLVIEANLDGELNLKIETELVCVTTHFKDLGNPPLASESTHEDRNVEHMAEVHIDIRKLLQFLAGQQVNPTKALCNIVNNKMVHFDLLHEDVSLQYFIPALS
B2 showed a percent reduction of RAD9 bound, against wild-type MUTYH of 50%.
